Source: patent US20090270506A1 (published 2009)
Each block holds one binder with its values, some of them ahead of it.

Columns and labels:
[1] = molecular target: the molecule itself; test: sedimentation equilibrium, analytical ultracentrifuge, 0.8% β-OG (self-association)
Procedure: Sedimentation equilibrium (SE) runs were performed at various speeds at 20° C. with sample volume of 100 μl using an Optima XL-I analytical ultracentrifuge (Beckman-Coulter, Palo Alto). The initial protein concentrations were 0.2-0.6 mg/ml in 20 mM Tris-HCl pH 7.5, 5% glycerol, 1 mM TCEP, 0.8% β-OG and 1 mM MgCl₂ (buffer B). The equilibrium absorbance profiles were recorded after 20 hours at 280 nm.
Analysis of the profiles was performed with the Beckman software package and the Schuck program [sequence] […] All solvent densities matched to the detergent densities by addition of sucrose, or not matched, were measured with a PAAR density meter, type DMA4500 (Anton Paar, Graz, Austria). The detergent densities were assessed in the buffer without protein from separate SE runs where the interference detection optics was used for the non absorbing detergents. […] Because of the sucrose addition the hydration state of the protein has to be considered. […] Thus, this value was used. […] The profiles were analysed by a model with various numbers of bound micelles. […] Thus, the analysis was carried out under this assumption providing a vbar value of 0.791 cm³/g. Similarly, the non-density-matched sample with β-OG under the cmc was analysed with vbar=0746 cm³/g.

[2] = molecular target: human 2,3-oxidosqualene:lanosterol cyclase with C-terminal myc-epitope and 6xHis-tag (human) (UniProt P48449); test: self-association; sedimentation equilibrium AUC at 14,000 rpm, 0.6% C8E5, supernatant at equilibrium
[3] = molecular target: human 2,3-oxidosqualene:lanosterol cyclase with C-terminal myc-epitope and 6xHis-tag (human) (UniProt P48449); test: self-association; sedimentation equilibrium AUC at 14,000 rpm, 0.2% β-OG (below CMC), supernatant at equilibrium
[4] = molecular target: human 2,3-oxidosqualene:lanosterol cyclase with C-terminal myc-epitope and 6xHis-tag (human) (UniProt P48449); test: self-association; sedimentation equilibrium AUC at 14,000 rpm, 0.8% β-OG, supernatant at equilibrium
[5] = molecular target: human 2,3-oxidosqualene:lanosterol cyclase with C-terminal myc-epitope and 6xHis-tag (human) (UniProt P48449); test: self-association; sedimentation equilibrium AUC at 14,000 rpm, 0.06% LDAO, supernatant at equilibrium
[6] = molecular target: human 2,3-oxidosqualene:lanosterol cyclase with C-terminal myc-epitope and 6xHis-tag (human) (UniProt P48449); test: self-association; sedimentation equilibrium AUC at 14,000 rpm, 0.016% DDM, supernatant at equilibrium
[7] = molecular target: human 2,3-oxidosqualene:lanosterol cyclase with C-terminal myc-epitope and 6xHis-tag (human) (UniProt P48449); test: self-association; sedimentation equilibrium AUC at 14,000 rpm, 0.2% Triton X-100, supernatant at equilibrium

B1: human 2,3-oxidosqualene:lanosterol cyclase, wild-type without tag (enzyme)
chain: TEGTCLRRRGGPYKTEPATDLGRWRLNCERGRQTWTYLQDERAGREQTGLEAYALGLDTKNYFKDLPKAHTAFEGALNGMTFYVGLQAEDGHWTGDYGGPLFLLPGLLITCHVARIPLPAGYREEIVRYLRSVQLPDGGWGLHIEDKSTVFGTALNYVSLRILGVGPDDPDLVRARNILHKKGGAVAIPSWGKFWLAVLNVYSWEGLNTLFPEMWLFPDWAPAHPSTLWCHCRQVYLPMSYCYAVRLSAAEDPLVQSLRQELYVEDFASIDWLAQRNNVAPDELYTPHSWLLRVVYALLNLYEHHHSAHLRQRAVQKLYEHIVADDRFTKSISIGPISKTINMLVRWYVDGPASTAFQEHVSRIPDYLWMGLDGMKMQGTNGSQIWDTAFAIQALLEAGGHHRPEFSSCLQKAHEFLRLSQVPDNPPDYQKYYRQMRKGGFSFSTLDCGWIVSDCTAEALKAVLLLQEKCPHVTEHIPRERLCDAVAVLLNMRNPDGGFATYETKRGGHLLELLNPSEVFGDIMIDYTYVECTSAVMQALKYFHKRFPEHRAAEIRETLTQGLEFCRRQQRADGSWEGSWGVCFTYGTWFGLEAFACMGQTYRDGTACAEVSRACDFLLSRQMADGGWGEDFESCEERRYVQSAQSQIHNTCWAMMGLMAVRHPDIEAQERGVRCLLEKQLPNGDWPQENIAGVFNKSCAISYTSYRNIFPIWALGRFSQLYPERALAGHP
notes: Expressed in P. pastoris from pPICZB; the whole entry is named; also called hOSC wildtype; hOSC wild-type
binding result [1]: no binding

monomer [%] [2]: 100%
dimer [%] [3]: 71%
monomer [%] [3]: 0%
tetramer [%] [3]: 18%
trimer [%] [3]: 11%
monomer [%] [4]: 100%
dimer [%] [5]: 6%
monomer [%] [5]: 94%
dimer [%] [6]: 23%
monomer [%] [6]: 70%
tetramer [%] [6]: 7%
monomer [%] [7]: 100%
B2: human 2,3-oxidosqualene:lanosterol cyclase with C-terminal myc-epitope and 6xHis-tag (enzyme)
chain: TEGTCLRRRGGPYKTEPATDLGRWRLNCERGRQTWTYLQDERAGREQTGLEAYALGLDTKNYFKDLPKAHTAFEGALNGMTFYVGLQAEDGHWTGDYGGPLFLLPGLLITCHVARIPLPAGYREEIVRYLRSVQLPDGGWGLHIEDKSTVFGTALNYVSLRILGVGPDDPDLVRARNILHKKGGAVAIPSWGKFWLAVLNVYSWEGLNTLFPEMWLFPDWAPAHPSTLWCHCRQVYLPMSYCYAVRLSAAEDPLVQSLRQELYVEDFASIDWLAQRNNVAPDELYTPHSWLLRVVYALLNLYEHHHSAHLRQRAVQKLYEHIVADDRFTKSISIGPISKTINMLVRWYVDGPASTAFQEHVSRIPDYLWMGLDGMKMQGTNGSQIWDTAFAIQALLEAGGHHRPEFSSCLQKAHEFLRLSQVPDNPPDYQKYYRQMRKGGFSFSTLDCGWIVSDCTAEALKAVLLLQEKCPHVTEHIPRERLCDAVAVLLNMRNPDGGFATYETKRGGHLLELLNPSEVFGDIMIDYTYVECTSAVMQALKYFHKRFPEHRAAEIRETLTQGLEFCRRQQRADGSWEGSWGVCFTYGTWFGLEAFACMGQTYRDGTACAEVSRACDFLLSRQMADGGWGEDFESCEERRYVQSAQSQIHNTCWAMMGLMAVRHPDIEAQERGVRCLLEKQLPNGDWPQENIAGVFNKSCAISYTSYRNIFPIWALGRFSQLYPERALAGHLEQKLISEEDLNSAVDHHHHHH
